Assay results reported in patent US20020082410.

Target: Ipf1 (RSV-Ipf1 expression vector) (Mus musculus) (UniProt P52946)
Assay: cell_activity
Settings: betaTC1 cells with RSV-Ipf1; in CHO cells Ipf1 raised activity to the betaTC1 level (about 3-fold over CHO)

5x P1 site linked to beta-globin TATA box reporter
activity: 2 fold
